Drawing on patent publication US20080089837A1, this text covers Kd for one substance.

The target of the assay is PDGFR-alpha (platelet derived growth factor receptor-alpha) on human osteosarcoma MG-63 cells (human) (UniProt P16234). Description: FACS titration on MG-63 cells, nonlinear fit of geometric mean fluorescence; goat anti-mouse detection; 95% CI ±99 pM.
Sequence of PDGFR-alpha (platelet derived growth factor receptor-alpha) on human osteosarcoma MG-63 cells (human) (P16234 24-1089): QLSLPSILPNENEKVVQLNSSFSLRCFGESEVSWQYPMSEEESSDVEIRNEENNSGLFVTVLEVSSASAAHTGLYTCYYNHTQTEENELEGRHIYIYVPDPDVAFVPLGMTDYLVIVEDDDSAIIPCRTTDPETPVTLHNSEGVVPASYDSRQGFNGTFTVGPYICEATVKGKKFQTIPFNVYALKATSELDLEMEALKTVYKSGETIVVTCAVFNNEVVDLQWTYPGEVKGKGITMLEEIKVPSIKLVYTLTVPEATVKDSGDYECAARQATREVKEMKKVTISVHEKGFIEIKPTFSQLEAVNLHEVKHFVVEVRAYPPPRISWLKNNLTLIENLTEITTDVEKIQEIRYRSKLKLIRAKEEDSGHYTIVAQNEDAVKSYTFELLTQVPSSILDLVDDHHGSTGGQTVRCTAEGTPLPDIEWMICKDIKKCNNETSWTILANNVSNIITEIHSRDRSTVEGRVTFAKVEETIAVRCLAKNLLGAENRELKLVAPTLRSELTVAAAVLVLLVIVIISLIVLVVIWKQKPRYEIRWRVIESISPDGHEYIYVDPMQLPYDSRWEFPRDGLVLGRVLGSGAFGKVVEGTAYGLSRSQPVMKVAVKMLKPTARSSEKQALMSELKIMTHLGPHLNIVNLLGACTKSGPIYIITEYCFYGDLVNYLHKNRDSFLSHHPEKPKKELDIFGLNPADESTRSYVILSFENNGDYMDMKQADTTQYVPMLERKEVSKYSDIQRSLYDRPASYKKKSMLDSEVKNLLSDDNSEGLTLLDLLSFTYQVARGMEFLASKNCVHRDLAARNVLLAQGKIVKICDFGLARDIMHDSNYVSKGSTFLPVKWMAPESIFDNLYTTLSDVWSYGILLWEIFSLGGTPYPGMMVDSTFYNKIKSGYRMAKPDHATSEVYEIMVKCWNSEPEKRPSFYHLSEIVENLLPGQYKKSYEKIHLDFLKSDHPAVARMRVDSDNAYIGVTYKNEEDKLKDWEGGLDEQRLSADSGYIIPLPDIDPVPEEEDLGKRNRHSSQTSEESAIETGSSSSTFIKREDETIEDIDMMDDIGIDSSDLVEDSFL

In the case of CD140a control antibody, the Kd is 0.146 nM.

In general, Kd refers to the concentration at which binding is half-saturated. Low values mean tighter binding, high ones weaker binding.
